Primed or numbered codes have the meaning given here. Biotin′ = not defined here

What is called EC50 is the concentration at which the effect is half-maximal.

Assay [1] addresses T1, His-tagged cynomolgus monkey LRRC25 extracellular domain protein, cyno LRRC25-His (cynomolgus monkey).
T1 construct: The entry holds the extracellular domain, a GSG linker and the His tag
Put plainly: ELISA, plate-immobilized cyno LRRC25-His. Here is the method:
(§1) A typical ELISA was performed by coating overnight in PBS, pH 7.4, at 4° C. in high binding microtiter wells with 1 ug/mL/100 ul per well of human LRRC25-His or cyno LRRC25-His. An anti-human LRRC25 antibody (2A3, LS Bio, LS-C174039-100) and anti-HIS-HRP (Miltenyi Biotec; 130-092-783) served as coating controls for the human and cyno LRRC25 proteins, respectively. […] Anti-LRRC25 antibodies were added (100 ul per well) at 500 nM and serially diluted 3-fold in assay buffer (1% skimmed milk in PBS, pH 7.4). The plate was incubated with gentle agitation for 1 h at room temperature. The plate was washed 3× and HRP-conjugated secondary antibody in assay buffer added [100 ul per well; goat anti-human IgG (Jackson Immunoresearch, cat #715-035-150)], and the plate was incubated as before. Antibody bound to plate-immobilized LRRC25(ECD)-HIS was determined at A450 nm using HRP substrate (3,3′,5,5′-tetramethylbenzidine (TMB); eBioscience; 00-4201-56); 100 μl/well).
In general terms: In an ELISA, binding on a coated surface is turned into a signal by an enzyme label.

Assay [2] concerns the target T2, LRRC25(81-100) biotin peptide (human, not fully specified; N-terminal acetyl; C-terminal GGK-Biotin).
T2 peptide: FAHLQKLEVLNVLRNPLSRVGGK
Put plainly: peptide ELISA. As to the method:
(§2) To establish if functional chimera anti-LRRC25 antibodies recognize particular regions of LRRC25, ELISA experiments were performed using 10 plate-immobilized 16- to 20-mer overlapping LRRC25(ECD) biotin peptides (Table 7). Biotinylated human LRRC25-His served as a positive control. A typical ELISA was performed by coating overnight at 4° C., 3 ug/mL/25 ul per well of streptavidin (Jackson Immunoresearch, Cat. #016-030-084) in PBS in half-area high binding microtiter wells (Corning Cat. #3690). […] Biotin peptides or biotinylated human LRRC25-His protein were added in duplicate (2 ug/mL/25 ul per well) in assay buffer (blocking buffer containing 0.05% tween 20) and the plate incubated for 45 min at 37° C. The plate was washed as before, 20 nM anti-LRRC25 antibodies in assay buffer added in duplicate into appropriate wells, and the plate incubated as before. The plate was washed and HRP-conjugated secondary antibody in assay buffer added [25 ul per well; goat anti-human IgG (Jackson Immunoresearch, Cat. #715-035-150)], and incubated as before. Antibody bound to plate-immobilized peptide(s) or protein was determined at A450 nm using HRP substrate (3,3′,5,5′-tetramethylbenzidine (TMB); eBioscience; Cat. #00-4201-56); 100 μl/well).

Assay [3] has as its target T3, LRRC25(111-130) biotin peptide (human, not fully specified; N-terminal acetyl; C-terminal GGK-Biotin; native Cys changed to Ser).
T3 peptide: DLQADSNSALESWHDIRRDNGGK
In words: peptide ELISA. As to the method: as §2

Assay [4] deals with T4, LRRC25(21-40) biotin peptide (human, not fully specified; N-terminal NH2; C-terminal GGK-Biotin; native Cys changed to Ser).
T4 peptide: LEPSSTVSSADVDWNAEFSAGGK
Put plainly: peptide ELISA. Here is the method: as §2

Assay [5] concerns the target T5, LRRC25(51-69) biotin peptide (human, not fully specified; N-terminal acetyl; C-terminal GGK-Biotin).
T5 peptide: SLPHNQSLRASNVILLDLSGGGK
In words: peptide ELISA. Here is the method: as §2

Assay [6] has as its target T6, LRRC25(36-55) biotin peptide (human, not fully specified; N-terminal NH2; C-terminal GGK-Biotin; native Cys changed to Ser).
T6 peptide: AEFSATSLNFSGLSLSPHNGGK
Put plainly: peptide ELISA. As to the method:
as §2

Assay [7] addresses T7, LRRC25(126-145) biotin peptide (human, not fully specified; N-terminal acetyl; C-terminal GGK-Biotin; native Cys changed to Ser).
T7 peptide: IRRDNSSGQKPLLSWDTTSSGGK
In words: peptide ELISA. Here is the method: as §2

The target in assay [8] is T8, LRRC25(66-85) biotin peptide (human, not fully specified; N-terminal acetyl; C-terminal GGK-Biotin).
T8 peptide: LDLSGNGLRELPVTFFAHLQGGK
In words: peptide ELISA. As to the method: as §2

Assay [9] concerns the target T9, LRRC25(141-159) biotin peptide (human, not fully specified; N-terminal acetyl; C-terminal GGK-Biotin; native Cys changed to Ser).
T9 peptide: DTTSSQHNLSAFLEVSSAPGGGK
In words: peptide ELISA. As to the method: as §2

The target in assay [10] is T10, LRRC25(150-165) biotin peptide (human).
T10 peptide: Ac-SAFLEVSSAPGLASATGG-{Biotin′}
In words: peptide ELISA. Here is the method:
as §2

The target in assay [11] is T11, His-tagged human LRRC25 extracellular domain protein, human LRRC25-His (human, UniProt Q8N386 21-165).
T11 construct: The entry holds the extracellular domain, a GSG linker and the His tag; also called LRRC25(ECD)-HIS
Put plainly: ELISA, plate-immobilized antigen. As to the method:
To establish the relative binding strengths of anti-LRRC25 antibodies against human LRRC25, and their cross-reactivity with cynomolgus monkey LRRC25, antibody binding curve analyses were performed and EC50 values against plate-immobilized recombinant human and cyno LRRC25 proteins were determined.
as §1

Assay [12] has as its target T12, biotinylated human LRRC25-His protein (human, UniProt Q8N386 21-165, biotinylated (sites not given)).
T12 construct: also called Biotin LRRC25-His; biotinylated LRRC25 protein
In words: ELISA, 20 nM antibody, biotinylated antigen on streptavidin plate. Here is the method: as §2

The target of assay [13] is T13, LRRC25(96-115) biotin peptide (human, not fully specified; N-terminal acetyl; C-terminal GGK-Biotin; native Cys changed to Ser).
T13 construct: also called Biotin LRRC25 (96-115) peptide
T13 peptide: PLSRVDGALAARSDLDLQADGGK
The description is as above. As to the method:
as §2

For assay [14], the target named is T13, LRRC25(96-115) biotin peptide. In words: peptide ELISA. Here is the method:
as §2

T1 sequence (chain, as listed by the source limits assumed): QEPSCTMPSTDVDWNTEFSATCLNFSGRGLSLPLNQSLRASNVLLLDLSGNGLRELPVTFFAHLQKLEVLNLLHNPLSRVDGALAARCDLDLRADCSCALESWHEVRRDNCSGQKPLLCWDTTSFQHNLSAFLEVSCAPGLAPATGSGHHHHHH
T11 sequence (Q8N386 other isoform, or with tags, fused parts or gaps): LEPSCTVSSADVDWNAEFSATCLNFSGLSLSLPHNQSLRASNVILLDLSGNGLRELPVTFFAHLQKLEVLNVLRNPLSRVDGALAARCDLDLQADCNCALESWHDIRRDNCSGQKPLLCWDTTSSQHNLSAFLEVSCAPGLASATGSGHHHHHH
T12 sequence (Q8N386 other isoform, or with tags, fused parts or gaps): as above

B1: anti-LRRC25 chimeric antibody 3F06 (antibody, human IgG4, V domains shown)
VH: DVMLVESGGGLVKPGGSLKLSCAASGFTFSSYAMSWVRQTPDKRLEWVASISSSGNTYYPDTMKGRFTISRDNARNILYLQMSSLRSEDTAMYYCARGLTGTLFAYWGQGTLVTVSA
VL: DIVMTQDAPSVPVTPGESVSISCRSSKSLLHSNGITFLYWFLQKPGQSPQLLIYQMSNLASGVPDRFSSSGSGTDFTLRISRVEAEDVGVYYCAQNLELPFTFGSGTKLEIGR
As to B1, the binding result was “no binding (tested: 500 nM)” in assay [1]; “no binding (tested: 20 nM)” in [2]; “no binding (tested: 20 nM)” in [3]; “no binding (tested: 20 nM)” in assay [4]; “no binding (tested: 20 nM)” in [5]; “no binding (tested: 20 nM)” in [6]. Besides, the binding result in assay [7], in [8], in assay [9] and in assay [10] was “no binding (tested: 20 nM)” in each case. Besides, in [11], it took 1.9 nM to reach a half-maximal effect (EC50). Besides, the figures for the “absorbance (A450)” value in assay [12] and in assay [13] were 1.23 A450 and 2.8 A450, respectively.

B2: anti-LRRC25 chimeric antibody 1G08 (antibody, human IgG4, V domains shown)
VH: DVQLVESGGGLVKPGGSLKLSCAASGFTFSNYAMSWVRQTPEKRLEWVASISRGGNTYYPDSVKGRFTISRDNARNILYLQMSSLRSEDTAIYYCTRGNYGSSPFAYWGQGTLVTVSA
VL: DIVLTQSPASLAVSLGQRATISCRASESVDSYGNSFMHWYQQKPGQPPKLLIYLASNLESGVPARFSGSGSRTDFTLTIDPVEADDAATYYCQQNNEDPWTFGGGTKLEIKR
On to B2, for which the binding result in assay [1] is on record as “no binding (tested: 500 nM)”; in assay [2], “no binding (tested: 20 nM)”; in assay [3], “no binding (tested: 20 nM)”; in assay [4], “no binding (tested: 20 nM)”; in assay [5], “no binding (tested: 20 nM)”; in assay [6], “no binding (tested: 20 nM)”. The binding result in assay [7], in [8], in [9], in [14] and in assay [10] was “no binding (tested: 20 nM)” each time. This molecule also gave an EC50 in assay [11] of 3.2 nM. Also, the “absorbance (A450)” value in assay [12] came out at 0.324 A450; in [13], 0.099 A450.

B3: anti-LRRC25 chimeric antibody 3E01 (antibody, human IgG4, V domains shown)
VH: EEKLEESGGGLVKPGGSLKLSCAVSGFTLSSYAMSWVRQTPEKRLEWVASISRGGNTYYPDSVKGRFTISRDNGRNILNLQMSSLRSEDTAIYYCTRGGGSTMITSLFAYWGQGTLVTVSA
VL: DIVMTQAAFSNPVTLGTSASIFCRSSKSLLHSNGITYLYWYLQKPGQSPQLLIYQMSNLASGVPDRFSSSGSGTDFTLRISRVEAEDVGVYYCAQNLELPYTFGGGTKLEIKR
Take B3: the binding result is recorded as “no binding (tested: 500 nM)” in assay [1]; “no binding (tested: 20 nM)” in assay [2]; “no binding (tested: 20 nM)” in assay [3]; “no binding (tested: 20 nM)” in [4]; “no binding (tested: 20 nM)” in assay [5]; “no binding (tested: 20 nM)” in assay [6]. For the same molecule, the binding result in assay [7], in [8], in assay [9], in assay [14] and in assay [10] was “no binding (tested: 20 nM)” each time. Further, in [11], the EC50 came out at 45.1 nM. Moreover, the “absorbance (A450)” value in [12] was 0.341 A450; in assay [13], 0.11 A450.

B4: anti-LRRC25 chimeric antibody 3F04 (antibody, human IgG4)
heavy: DVQLVESGGGLVKPGGSLKLSCAVSGFTLSSYAMSWVRQTPEKRLEWVASISRGGSTYYPDSVKGRFTISRDNGRNILNLQMSSLRSEDTAIYYCARGGGSTMITSLFAYWGQGTLVTVSAASTKGPSVFPLAPCSRSTSESTAALGCLVKDYFPEPVTVSWNSGALTSGVHTFPAVLQSSGLYSLSSVVTVPSSSLGTKTYTCNVDHKPSNTKVDKRVESKYGPPCPPCPAPEFLGGPSVFLFPPKPKDTLMISRTPEVTCVVVDVSQEDPEVQFNWYVDGVEVHNAKTKPREEQFNSTYRWSVLTVLHQDWLNGKEYKCKVSNKGLPSSIEKTISKAKGQPREPQVYTLPPSQEEMTKNQVSLTCLVKGFYPSDIAVEWESNGQPENNYKTTPPVLDSDGSFFLYSRLTVDKSRWQEGNVFSCSVMHEALHNHYTQKSLSLSLGK
light: DIVMTQDAFSNPVTLGTSASISCRSSKSLLHSNGITYLYWYLQKPGQSPQLLIYQMSNLASGVPDRFSSSGSGTDFTLRISRVEAEDVGVYYCAQNLELPFTFGSGTKLEIKRTVAAPSVFIFPPSDEQLKSGTASVVCLLNNFYPREAKVQWKVDNALQSGNSQESVTEQDSKDSTYSLSSTLTLSKADYEKHKVYACEVTHQGLSSPVTKSFNRGEC
On to B4, for which the binding result in assay [1] is reported as “no binding (tested: 500 nM)”; in assay [2] it was “no binding (tested: 20 nM)”; in assay [3] it was “no binding (tested: 20 nM)”; in [4], “no binding (tested: 20 nM)”; in assay [5], “no binding (tested: 20 nM)”; in [6], “no binding (tested: 20 nM)”. Besides, the binding result in assay [7], in assay [8], in [9], in assay [14] and in [10] was “no binding (tested: 20 nM)” throughout. The molecule also had an EC50 in assay [11] of 63 nM. The entries for the “absorbance (A450)” value in assay [12] and in assay [13] were 0.324 A450 and 0.156 A450, respectively.

For the origin of these results see patent US20220363752A1 (VERSEAU THERAPEUTICS, published 2022).
